Data on two molecules can be found in patent US20150174202A1, “Methods and Compositions for Modulating Beta Cell Proliferation” (The Board of Trustees of the Leland Stanford Junior …, priority 2011, published 2015).

What all share (format): cell-based
For one assay, the system named is PDGFRA. Briefly: Pdgfra expression in cultured adult mouse islets exposed to Wnt3a or R-Spondin. The conditions noted are these: isolated adult mouse islets (4-5 months of age) in culture. The source says: In diverse tissues, including the pancreas, Wnt signaling activates expression of Axin2, a negative regulator of the pathway. […] This spatially and temporally restricted expression pattern is reminiscent of declining Pdgfra, Pdgfrab, and Ezh2 levels and β-cell proliferation in animals (FIG. 22B-D, Chen et al 2009, 2011). Likewise, in mice harboring a ‘Top-Gal’ synthetic reporter gene of Wnt signaling activity, β-galactosidase reporter expression declines in islet β-cells with age (FIG. 22E-G). Thus, changes in Wnt signaling underlie age-dependent reductions of Pdgfr expression and β-cell PDGF signaling competence in β-cells. Consistent with this, culture of isolated adult mouse islets (4-5 months of age) with purified Wnt3a or the Wnt agonist R-Spondin increased Pdgfra mRNA expression. As described above, Pdgfra signaling induced Ezh2 expression in islets. To assess the function of Pdgfra induced by R-Spondin, R-Spondin was added to adult mouse islets, followed by addition of purified PDGF-AA (100 ng/ml), and Ezh2 mRNA levels were then measured.

The test system of the next assay is PDGFRα and PDGFRβ. The assay can be described thus: PDGFR mRNA in cultured adult human islets exposed to Wnt3a or R-Spondin.
Another assay deals with Ezh2. Briefly: Ezh2/Ezh1 expression in cultured mouse islets (real-time RT-PCR, western blot). The note with it: juvenile mouse islets exposed to insulin or prolactin, 2 days. As for the experimental part:
Mouse pancreatic islets were purified as described in Chen et al. (2009) Genes Dev. 23, 975-985 and used immediately for assays described in the text. To study Ezh2 induction in cultured islets exposed to mitogens, freshly isolated islets from 2-3-week old, and 7-12-month old C57BL/6 mice were recovered and equilibrated overnight at 37° C., 5% CO2 in RPMI-1640 medium supplemented with 0.5% fetal bovine serum (FBS), 0.2% bovine albumin (BSA) and 2% penicillin/streptomycin. […] Immunostaining of BrdU and insulin was performed on processed islets, and β-cell proliferation rate was determined by quantifying percentage of insulin+ cells with BrdU+. […] RNA concentration was measured with a RiboGreen RNA quantification assay (Invitrogen). One-step quantitative RT-PCR was performed and analysed using an ABI Prism 7300 detection system (Applied Biosystems) with TaqMan one-step RTPCR Master Mix Reagents and appropriate amounts (10-100 ng) of islet total RNA as the template. We calculated the ratio of mRNA for the gene of interest to the amount of internal control mRNA of peptidylprolyl isomerase A (cyclophilin A, PPIA), and then normalized the ratio for each gene to its median. […]

The mark [1] stands for this setting: adult human islets (mean age >40 years), exposed for two days.

“Also recorded” adds a separate entry of the source.

B1: Wnt3a: purified Wnt3a protein (protein, UniProt P56704 19-352, looked up)
Protein Wnt-3a: SYPIWWSLAVGPQYSSLGSQPILCASIPGLVPKQLRFCRNYVEIMPSVAEGIKIGIQECQHQFRGRRWNCTTVHDSLAIFGPVLDKATRESAFVHAIASAGVAFAVTRSCAEGTAAICGCSSRHQGSPGKGWKWGGCSEDIEFGGMVSREFADARENRPDARSAMNRHNNEAGRQAIASHMHLKCKCHGLSGSCEVKTCWWSQPDFRAIGDFLKDKYDSASEMVVEKHRESRGWVETLRPRYTYFKVPTERDLVYYEASPNFCEPNPETGSFGTRDRTCNVSSHGIDGCDLLCCGRGHNARAERRREKCRCVFHWCCYVSCQECTRVYDVHTCK
For the molecule B1, the “Pdgfra mRNA expression” value in the assay on PDGFRA was “increased”. Besides, in the assay with PDGFRα and PDGFRβ (setting [1]), the “mRNA levels encoding PDGFRα” value is “increased” and the “mRNA levels encoding PDGFRβ” value is on record as “increased”. In the assay with PDGFRα and PDGFRβ (cultured adult human islets), the “dose dependence of induction of PDGFRA and PDGFRB mRNA” value is “depends on the dose”.

B2: prolactin (protein, UniProt P01236 29-227, looked up)
Prolactin: LPICPGGAARCQVTLRDLFDRAVVLSHYIHNLSSEMFSEFDKRYTHGRGFITKAINSCHTSSLATPEDKEQAQQMNQKDFLSLIVSILRSWNEPLYHLVTEVRGMQEAPEAILSKAVEIEEQTKRLLEGMELIVSQVHPETKENEIYPVWSGLPSLQMADEESRLSAYYNLLHCLRRDSHKIDNYLKLLKCRIIHNNNC
notes: mitogen capable of promoting β-cell proliferation
B2: the “Ezh2 mRNA levels after mitogen exposure” value with Ezh2 is “did not detectably alter; also recorded: did not induce”.
